Reference: US20140087995A1 (published 2014)
Numbered stars: 1 amine (or outer) side, 2 acyl side, 3 side chain; on linkers, the order of the positions; unused ones are H or OH. Bridge positions count the residues as written; N and C are the ends. * marks the point of attachment. C20 diacid = O=C(O)CCCCCCCCCCCCCCCCCCC(=O)*; γGlu = O=C(O)[C@H](CCC(=O)[*:2])N[*:1]

T1: rat calcitonin receptor (rat, UniProt P32214 25-516)
T1 construct: whole, on cells; Membranes of BHK tk'ts 13 cells transiently transfected with the rat calcitonin receptor; also called rCTR; rat calcitonin (a) receptor
T1 sequence (looked up): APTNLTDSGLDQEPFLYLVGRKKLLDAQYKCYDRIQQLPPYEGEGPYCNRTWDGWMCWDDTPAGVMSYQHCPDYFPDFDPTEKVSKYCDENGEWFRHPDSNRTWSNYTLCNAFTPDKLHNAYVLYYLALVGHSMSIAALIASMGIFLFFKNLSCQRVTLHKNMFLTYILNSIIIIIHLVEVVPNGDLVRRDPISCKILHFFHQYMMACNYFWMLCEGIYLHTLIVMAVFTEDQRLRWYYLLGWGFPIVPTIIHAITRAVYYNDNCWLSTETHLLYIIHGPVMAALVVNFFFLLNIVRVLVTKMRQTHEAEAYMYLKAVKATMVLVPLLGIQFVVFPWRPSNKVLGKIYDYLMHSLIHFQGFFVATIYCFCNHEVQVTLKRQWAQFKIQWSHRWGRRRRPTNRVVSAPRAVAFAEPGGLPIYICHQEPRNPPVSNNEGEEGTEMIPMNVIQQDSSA

T2: human calcitonin receptor (human, UniProt P30988 25-474)
T2 construct: whole, on cells; Membranes of a BHK tk'ts 13 cell line stably transfected with the human calcitonin receptor; also called hCTR; hCT
T2 sequence (looked up): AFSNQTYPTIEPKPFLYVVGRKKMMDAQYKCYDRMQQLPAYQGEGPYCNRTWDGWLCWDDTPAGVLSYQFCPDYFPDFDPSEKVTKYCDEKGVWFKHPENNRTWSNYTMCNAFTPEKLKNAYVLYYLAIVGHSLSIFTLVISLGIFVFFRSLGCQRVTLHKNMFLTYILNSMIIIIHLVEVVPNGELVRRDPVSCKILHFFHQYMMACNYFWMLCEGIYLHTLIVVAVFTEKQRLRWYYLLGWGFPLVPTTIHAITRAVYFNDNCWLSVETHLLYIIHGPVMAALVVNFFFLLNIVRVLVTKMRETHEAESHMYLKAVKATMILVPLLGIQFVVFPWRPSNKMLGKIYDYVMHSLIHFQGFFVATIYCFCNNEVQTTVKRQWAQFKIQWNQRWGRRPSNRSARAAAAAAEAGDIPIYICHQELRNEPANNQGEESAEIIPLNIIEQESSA

T3: rat amylin receptor (rat calcitonin receptor + rat RAMP 3) (rat, UniProt P32214 25-516; Q9JJ73 23-147)
T3 construct: whole, on cells; Membranes of BHK tk'ts 13 cells transiently transfected with the rat calcitonin receptor and rat RAMP 3; also called rAmylin-R; rat amylin 3(a) receptor
T3 sequence (looked up) 1: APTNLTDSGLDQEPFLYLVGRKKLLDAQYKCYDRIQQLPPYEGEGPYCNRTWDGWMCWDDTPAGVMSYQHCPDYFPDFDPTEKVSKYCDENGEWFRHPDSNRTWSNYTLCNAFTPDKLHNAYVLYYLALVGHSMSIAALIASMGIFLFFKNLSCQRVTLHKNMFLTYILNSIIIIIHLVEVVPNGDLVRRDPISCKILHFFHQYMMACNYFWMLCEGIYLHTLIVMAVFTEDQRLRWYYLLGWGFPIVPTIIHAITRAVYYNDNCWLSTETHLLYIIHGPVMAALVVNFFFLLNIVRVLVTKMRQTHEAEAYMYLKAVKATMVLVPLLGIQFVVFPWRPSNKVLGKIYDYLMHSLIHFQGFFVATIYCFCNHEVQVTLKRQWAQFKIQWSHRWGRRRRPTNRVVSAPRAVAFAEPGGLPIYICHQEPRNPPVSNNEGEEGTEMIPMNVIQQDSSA
T3 sequence (looked up) 2: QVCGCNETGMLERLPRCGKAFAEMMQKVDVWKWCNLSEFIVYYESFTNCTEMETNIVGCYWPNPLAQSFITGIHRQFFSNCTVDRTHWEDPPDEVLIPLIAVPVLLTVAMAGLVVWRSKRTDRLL


Key:
[1] = target: T1, rat calcitonin receptor; experiment: SPA competition vs 125I-calcitonin, membranes with rat CTR (Assay VIII)
[2] = target: T2, human calcitonin receptor; experiment: IC50 at hCTR divided by IC50 at hAmylin-R (reference)
Method in brief: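 Competition binding by SPA uses membrane preparations (35 ng/μL final) in pH 7.4 Hepes buffer with 1 mM CaCl2 and 5 mM MgCl₂. Incubation lasts 120 min at 25° C, and IC₅₀ comes from one-site fitting.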

[3] = target: T1, rat calcitonin receptor; experiment: IC50 at rCTR divided by IC50 at rAmylin-R (reference)
[4] = target: T3, rat amylin receptor (rat calcitonin …); experiment: SPA competition vs 125I-rat amylin, membranes with rat CTR + rat RAMP3 (Assay VI)

IC50 [1]	Ratio hCT/hAmylin binding [2]	Ratio rCT/rAmylin binding [3]	IC50 [4]	Binder
97.2 nM	12.5	35.9	2.71 nM	{C20 diacid-γGlu}-KCNTATCATQRLAEFLRHSSPNFGAIPSSTNVGHNTY-NH2 (disulfide 2-7; SMILES CC[C@H](C)[C@H](NC(=O)[C@H](C)NC(=O)CNC(=O)[C@H](Cc1ccccc1)NC(=O)[C@H](CC(N)=O)NC(=O)[C@@H]1CCCN1C(=O)[C@H](CO)NC(=O)[C@H](CO)NC(=O)[C@H](Cc1c[nH]cn1)NC(=O)[C@H](CCCNC(=N)N)NC(=O)[C@H](CC(C)C)NC(=O)[C@H](Cc1ccccc1)NC(=O)[C@H](CCC(=O)O)NC(=O)[C@H](C)NC(=O)[C@H](CC(C)C)NC(=O)[C@H](CCCNC(=N)N)NC(=O)[C@H](CCC(N)=O)NC(=O)[C@@H](NC(=O)[C@H](C)NC(=O)[C@@H]1CSSC[C@H](NC(=O)[C@H](CCCCN)NC(=O)CC[C@H](NC(=O)CCCCCCCCCCCCCCCCCCC(=O)O)C(=O)O)C(=O)N[C@@H](CC(N)=O)C(=O)N[C@@H]([C@@H](C)O)C(=O)N[C@@H](C)C(=O)N[C@@H]([C@@H](C)O)C(=O)N1)[C@@H](C)O)C(=O)N1CCC[C@H]1C(=O)N[C@@H](CO)C(=O)N[C@@H](CO)C(=O)N[C@H](C(=O)N[C@@H](CC(N)=O)C(=O)N[C@H](C(=O)NCC(=O)N[C@@H](Cc1c[nH]cn1)C(=O)N[C@@H](CC(N)=O)C(=O)N[C@H](C(=O)N[C@@H](Cc1ccc(O)cc1)C(N)=O)[C@@H](C)O)C(C)C)[C@@H](C)O, modifications are with respect to human amylin; also called compound 17)
13 nM	9.2	27.3	0.476 nM	{C20 diacid-γGlu}-KCNTATCATQRLAEFLRHSSPNFGAIPSSTNVGSHTY-NH2 (disulfide 2-7; SMILES CC[C@H](C)[C@H](NC(=O)[C@H](C)NC(=O)CNC(=O)[C@H](Cc1ccccc1)NC(=O)[C@H](CC(N)=O)NC(=O)[C@@H]1CCCN1C(=O)[C@H](CO)NC(=O)[C@H](CO)NC(=O)[C@H](Cc1c[nH]cn1)NC(=O)[C@H](CCCNC(=N)N)NC(=O)[C@H](CC(C)C)NC(=O)[C@H](Cc1ccccc1)NC(=O)[C@H](CCC(=O)O)NC(=O)[C@H](C)NC(=O)[C@H](CC(C)C)NC(=O)[C@H](CCCNC(=N)N)NC(=O)[C@H](CCC(N)=O)NC(=O)[C@@H](NC(=O)[C@H](C)NC(=O)[C@@H]1CSSC[C@H](NC(=O)[C@H](CCCCN)NC(=O)CC[C@H](NC(=O)CCCCCCCCCCCCCCCCCCC(=O)O)C(=O)O)C(=O)N[C@@H](CC(N)=O)C(=O)N[C@@H]([C@@H](C)O)C(=O)N[C@@H](C)C(=O)N[C@@H]([C@@H](C)O)C(=O)N1)[C@@H](C)O)C(=O)N1CCC[C@H]1C(=O)N[C@@H](CO)C(=O)N[C@@H](CO)C(=O)N[C@H](C(=O)N[C@@H](CC(N)=O)C(=O)N[C@H](C(=O)NCC(=O)N[C@@H](CO)C(=O)N[C@@H](Cc1c[nH]cn1)C(=O)N[C@H](C(=O)N[C@@H](Cc1ccc(O)cc1)C(N)=O)[C@@H](C)O)C(C)C)[C@@H](C)O, modifications are with respect to human amylin; also called compound 18)
